From article PMC5314765

T1: Abf2p (mature) (Saccharomyces cerevisiae, UniProt Q02486 27-183)
T1 sequence: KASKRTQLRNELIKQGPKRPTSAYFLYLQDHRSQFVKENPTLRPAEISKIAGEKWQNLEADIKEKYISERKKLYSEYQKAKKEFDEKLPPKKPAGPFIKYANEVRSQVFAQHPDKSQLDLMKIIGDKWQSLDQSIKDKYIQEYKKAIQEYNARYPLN

B1: GC_22 (dsDNA)
DNA 1: GAAGATATCCGGGTCCCAATAA
DNA 2: TTATTGGGACCCGGATATCTTC
B2: Af2_22 5-BrU6 (dsDNA)
DNA 1: AATAATAAATTATATAATATAA
DNA 2: TTATATTATATAATTTATTATT
modifications: T6 replaced by 5-bromouracil

Assays:
Abf2p (mature) [1] = biological target: T1, Abf2p (mature); assay: ITC
Abf2p (mature) [2] = biological target: T1, Abf2p (mature); assay: X-ray crystallography

Binder | binding result (Abf2p (mature) [1]) | binding result (Abf2p (mature) [2])
B1 | binds | 
B2 |  | binds
